# In patent publication US20090155304A1 (OSEL, published 2009):
# Key:
# [1] = target: gp120 of CXCR4-tropic HIV-1 IIIB (on cell-free virus) (HIV-1 IIIB); experiment: cell-based or functional assay
# [2] = target: gp120 of CCR5-tropic HIV-1 BaL (on cell-free virus) (HIV-1 BaL); experiment: cell-based or functional assay
binder,measurement,setting,value
Lactobacillus-derived full-length APVT-CV-N (P51G) (other) APVTLGKFSQTCYNSAIQGSVLTSTCERTNGGYNTSSIDLNSVIENVDGSLKWQGSNFIETCRNTQLAGSSELAAECKTRAQQFVSTKINLDDHIANIDGTLKYE,"IC50, inhibition of CXCR4-tropic HIVIIIB (HeLa-LTR-beta-gal X4-tropic attachment assay)",[1],< 3 nM
same,"IC50, inhibition of CCR5-tropic HIVBaL infection (MAGI-R5-LTR-beta-gal attachment inhibition assay)",[2],0.3 nM
